Where two headings read alike, the source gives them in different places.
Columns and labels:
human RXFP1 receptor = molecular target: T1, human RXFP1 receptor (Homo sapiens, UniProt Q9HBX9); experiment: Intracellular cAMP accumulation assay; type: cell-based
T1 construct: expressed in transfected cells
T1 sequence (Q9HBX9 1-757): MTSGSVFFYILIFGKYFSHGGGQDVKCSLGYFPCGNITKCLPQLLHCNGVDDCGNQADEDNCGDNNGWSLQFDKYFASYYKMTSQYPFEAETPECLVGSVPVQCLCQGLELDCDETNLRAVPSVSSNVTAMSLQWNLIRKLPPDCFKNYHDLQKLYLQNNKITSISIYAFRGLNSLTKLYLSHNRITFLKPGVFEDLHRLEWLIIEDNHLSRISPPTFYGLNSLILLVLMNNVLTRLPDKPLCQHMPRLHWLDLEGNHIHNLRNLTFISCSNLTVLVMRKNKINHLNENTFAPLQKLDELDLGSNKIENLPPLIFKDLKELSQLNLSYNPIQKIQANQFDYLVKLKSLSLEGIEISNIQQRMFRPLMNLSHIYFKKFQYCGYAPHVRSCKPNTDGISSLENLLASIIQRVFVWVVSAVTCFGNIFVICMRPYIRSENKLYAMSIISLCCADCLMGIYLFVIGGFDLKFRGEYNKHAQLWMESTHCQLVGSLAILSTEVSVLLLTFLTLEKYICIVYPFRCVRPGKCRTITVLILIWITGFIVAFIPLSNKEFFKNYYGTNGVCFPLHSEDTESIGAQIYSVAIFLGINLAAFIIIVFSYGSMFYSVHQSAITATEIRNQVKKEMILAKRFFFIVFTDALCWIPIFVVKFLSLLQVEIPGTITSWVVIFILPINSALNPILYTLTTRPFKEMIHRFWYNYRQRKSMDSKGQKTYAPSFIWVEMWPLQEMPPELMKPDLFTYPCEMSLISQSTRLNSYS
Experimental: The intracellular cAMP accumulation assay described herein was used to assess relaxin bioactivity and potency.
CHO-K1 cells (ATCC; Cat. #CRL-9618) stably expressing the human RXFP1 receptor (locus number LOC59350) (10,000/well) were plated into 96-well plates and cultured overnight at 37° C. and 5% CO2. On the following day, the medium was removed from the wells and the cells were stimulated with the addition of ligand (relaxin polypeptide) in 50 uL buffer (1×HBSS, 5 mM HEPES (7.2), 0.5 mM IBMX, 0.1% BSA); incubation was for 10 min at 37° C. Unstimulated cells were utilized as reference controls. Reactions were terminated and cellular cAMP levels were measured using the Homogeneous Time Resolved Fluorescence (HTRF) Dynamic 2 cAMP kit (CisBio, #62AM4PEC) according to the manufacturer's protocol. Plates were analyzed using an EnVision 2104 Multilablel Reader (PerkinElmer). Signal was expressed in terms of the ratio of fluorescence intensity @ 665 nm/fluorescence intensity @620 nm×10,000. The concentration of cAMP in the sample was determined by comparison with standard curves generated from known concentrations of cAMP. The potency of each relaxin was determined using a ten-point concentration response curves which was performed in duplicate. The data were analyzed using Microsoft Excel, Version 2013 Xlfit software. Effective concentration 50 (EC50) values, the point at which the response was one-half maximal, were calculated using a four-parameter logistic equation that allowed for a variable-slope (Table 3).

[1] = In vivo pharmacokinetic (PK) studies in rats; design: species or system Sprague-Dawley rats; conditions: rat, male Sprague-Dawley rats, single SC dose 1.0 mg/kg, serum ELISA; for AUC(0-inf): read-out: Rat PK AUC Total; for level at time molar at 24 h: read-out: Rat PK C24
Procedure, shortened: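 Male Sprague-Dawley rats (n=3) given a single 1 mg/kg IV or SC dose of relaxin constructs in 20 mM histidine, 750 mM NaCl, pH 6.0; jugular serum sampled to 72 h. Serum relaxin by ELISA; Cmax, AUCinf, C24 and half-life from non-compartmental analysis of individual profiles.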

[2] = CHO-K1 cells stably expressing human RXFP1, 10 min at 37° C., HTRF cAMP, average, read-out: hRXFP1/CHO-K1 cAMP EC50 (nM, avg)

| SMILES | EC50 (human RXFP1 receptor; [2]) [nM] | AUC(0-inf) [1] [nM·h] | level at time molar at 24 h [1] [nM] | EC50 (human RXFP1 receptor) [nM] |
| --- | --- | --- | --- | --- |
| CC[C@H](C)[C@@H]1NC(=O)[C@H](C)NC(=O)[C@H]([C@@H](C)CC)NC(=O)[C@H](CCC(N)=O)NC(=O)[C@H](C)NC(=O)[C@H](CCCNC(=N)N)NC(=O)[C@H](C(C)C)NC(=O)[C@H](CC(C)C)NC(=O)[C@H](CCC(=O)O)NC(=O)[C@H](CCCNC(=N)N)NC(=O)CNC(=O)[C@@H](NC(=O)[C@H](CC(C)C)NC(=O)[C@H](CCCCN)NC(=O)[C@@H](NC(=O)[C@@H](NC(=O)[C@H](CCC(=O)O)NC(=O)[C@H](CCC(=O)O)NC(=O)[C@H](CCSC)NC(=O)[C@H](Cc2c[nH]c3ccccc23)NC(=O)[C@H](CO)NC(=O)[C@H](C)N)C(C)C)[C@@H](C)CC)CSSC[C@@H]2NC(=O)[C@@H](NC(=O)[C@H](CCCCN)NC(=O)[C@H](CC(N)=O)NC(=O)[C@H](C)NC(=O)[C@H](CC(C)C)NC(=O)[C@H](C)NC(=O)[C@H](CO)NC(=O)[C@H](Cc3ccc(O)cc3)NC(=O)[C@H](CC(C)C)NC(=O)[C@@H](N)Cc3ccc(C(C)=NOCCNC(=O)[C@H](CC(=O)O)NC(=O)[C@H](CCCNC(=N)N)NC(=O)[C@H](CC(=O)O)NC(=O)[C@H](CC(=O)O)NC(=O)[C@H](CCCNC(=N)N)NC(=O)[C@H](CC(=O)O)NC(=O)CCCCCCCCCCCCC(=O)O)cc3)CSSC[C@H](NC(=O)CNC(=O)[C@H](C(C)C)NC(=O)[C@H](Cc3c[nH]cn3)NC2=O)C(=O)N[C@@H]([C@@H](C)O)C(=O)N[C@@H](CCCCN)C(=O)N[C@@H](CCCNC(=N)N)C(=O)N[C@@H](CO)C(=O)N[C@@H](CC(C)C)C(=O)N[C@@H](C)C(=O)N[C@@H](CCCNC(=N)N)C(=O)N[C@@H](Cc2ccccc2)C(=O)N[C@H](C(=O)O)CSSC[C@@H](C(=O)NCC(=O)N[C@@H](CCSC)C(=O)N[C@@H](CO)C(=O)N[C@H](C(=O)N[C@@H](Cc2c[nH]c3ccccc23)C(=O)N[C@@H](CO)C(=O)O)[C@@H](C)O)NC1=O [AQ1-DRDDRD-C13-COOH] | 0.32 | 1010 | 0.38 |  |
| CC[C@H](C)[C@@H]1NC(=O)[C@H](C)NC(=O)[C@H]([C@@H](C)CC)NC(=O)[C@H](CCC(N)=O)NC(=O)[C@H](C)NC(=O)[C@H](CCCNC(=N)N)NC(=O)[C@H](C(C)C)NC(=O)[C@H](CC(C)C)NC(=O)[C@H](CCC(=O)O)NC(=O)[C@H](CCCNC(=N)N)NC(=O)CNC(=O)[C@@H](NC(=O)[C@H](CC(C)C)NC(=O)[C@H](CCCCN)NC(=O)[C@@H](NC(=O)[C@@H](NC(=O)[C@H](CCC(=O)O)NC(=O)[C@H](CCC(=O)O)NC(=O)[C@H](CCSC)NC(=O)[C@H](Cc2c[nH]c3ccccc23)NC(=O)[C@H](CO)NC(=O)[C@H](C)N)C(C)C)[C@@H](C)CC)CSSC[C@@H]2NC(=O)[C@@H](NC(=O)[C@H](CCCCN)NC(=O)[C@H](CC(N)=O)NC(=O)[C@H](C)NC(=O)[C@H](CC(C)C)NC(=O)[C@H](C)NC(=O)[C@H](CO)NC(=O)[C@H](Cc3ccc(O)cc3)NC(=O)[C@H](CC(C)C)NC(=O)[C@@H](N)Cc3ccc(C(C)=NOCCNC(=O)[C@H](CCCCN)NC(=O)[C@H](CCCCN)NC(=O)CC[C@H](NC(=O)CCCCCCCCCCCCCC(=O)O)C(=O)O)cc3)CSSC[C@H](NC(=O)CNC(=O)[C@H](C(C)C)NC(=O)[C@H](Cc3c[nH]cn3)NC2=O)C(=O)N[C@@H]([C@@H](C)O)C(=O)N[C@@H](CCCCN)C(=O)N[C@@H](CCCNC(=N)N)C(=O)N[C@@H](CO)C(=O)N[C@@H](CC(C)C)C(=O)N[C@@H](C)C(=O)N[C@@H](CCCNC(=N)N)C(=O)N[C@@H](Cc2ccccc2)C(=O)N[C@H](C(=O)O)CSSC[C@@H](C(=O)NCC(=O)N[C@@H](CCSC)C(=O)N[C@@H](CO)C(=O)N[C@H](C(=O)N[C@@H](Cc2c[nH]c3ccccc23)C(=O)N[C@@H](CO)C(=O)O)[C@@H](C)O)NC1=O [AQ1-KK-Glu^γ-C14-COOH] |  | 451 | 1.5 | 0.34 |
| CC[C@H](C)[C@@H]1NC(=O)[C@H](C)NC(=O)[C@H]([C@@H](C)CC)NC(=O)[C@H](CCC(N)=O)NC(=O)[C@H](C)NC(=O)[C@H](CCCNC(=N)N)NC(=O)[C@H](C(C)C)NC(=O)[C@H](CC(C)C)NC(=O)[C@H](CCC(=O)O)NC(=O)[C@H](CCCNC(=N)N)NC(=O)CNC(=O)[C@@H](NC(=O)[C@H](CC(C)C)NC(=O)[C@H](CCCCN)NC(=O)[C@@H](NC(=O)[C@@H](NC(=O)[C@H](CCC(=O)O)NC(=O)[C@H](CCC(=O)O)NC(=O)[C@H](CCSC)NC(=O)[C@H](Cc2c[nH]c3ccccc23)NC(=O)[C@H](CO)NC(=O)[C@H](C)N)C(C)C)[C@@H](C)CC)CSSC[C@@H]2NC(=O)[C@@H](NC(=O)[C@H](CCCCN)NC(=O)[C@H](CC(N)=O)NC(=O)[C@H](C)NC(=O)[C@H](CC(C)C)NC(=O)[C@H](C)NC(=O)[C@H](CO)NC(=O)[C@H](Cc3ccc(O)cc3)NC(=O)[C@H](CC(C)C)NC(=O)[C@@H](N)Cc3ccc(C(C)=NOCCNC(=O)[C@H](CCC(=O)O)NC(=O)[C@H](CCC(=O)O)NC(=O)[C@H](CCC(=O)O)NC(=O)CNC(=O)CNC(=O)CNC(=O)CC[C@H](NC(=O)CCCCCCCCCCCCC(=O)O)C(=O)O)cc3)CSSC[C@H](NC(=O)CNC(=O)[C@H](C(C)C)NC(=O)[C@H](Cc3c[nH]cn3)NC2=O)C(=O)N[C@@H]([C@@H](C)O)C(=O)N[C@@H](CCCCN)C(=O)N[C@@H](CCCNC(=N)N)C(=O)N[C@@H](CO)C(=O)N[C@@H](CC(C)C)C(=O)N[C@@H](C)C(=O)N[C@@H](CCCNC(=N)N)C(=O)N[C@@H](Cc2ccccc2)C(=O)N[C@H](C(=O)O)CSSC[C@@H](C(=O)NCC(=O)N[C@@H](CCSC)C(=O)N[C@@H](CO)C(=O)N[C@H](C(=O)N[C@@H](Cc2c[nH]c3ccccc23)C(=O)N[C@@H](CO)C(=O)O)[C@@H](C)O)NC1=O [AQ1-EEEGGG-Glu^γ-C13-COOH] | 0.31 | 1380 | 0.29 |  |
| CC[C@H](C)[C@@H]1NC(=O)[C@H](C)NC(=O)[C@H]([C@@H](C)CC)NC(=O)[C@H](CCC(N)=O)NC(=O)[C@H](C)NC(=O)[C@H](CCCNC(=N)N)NC(=O)[C@H](C(C)C)NC(=O)[C@H](CC(C)C)NC(=O)[C@H](CCC(=O)O)NC(=O)[C@H](CCCNC(=N)N)NC(=O)CNC(=O)[C@@H](NC(=O)[C@H](CC(C)C)NC(=O)[C@H](CCCCN)NC(=O)[C@@H](NC(=O)[C@@H](NC(=O)[C@H](CCC(=O)O)NC(=O)[C@H](CCC(=O)O)NC(=O)[C@H](CCSC)NC(=O)[C@H](Cc2c[nH]c3ccccc23)NC(=O)[C@H](CO)NC(=O)[C@H](C)N)C(C)C)[C@@H](C)CC)CSSC[C@@H]2NC(=O)[C@@H](NC(=O)[C@H](CCCCN)NC(=O)[C@H](CC(N)=O)NC(=O)[C@H](C)NC(=O)[C@H](CC(C)C)NC(=O)[C@H](C)NC(=O)[C@H](CO)NC(=O)[C@H](Cc3ccc(O)cc3)NC(=O)[C@H](CC(C)C)NC(=O)[C@@H](N)Cc3ccc(C(C)=NOCCNC(=O)[C@H](CCCCN)NC(=O)[C@H](CCCCN)NC(=O)[C@H](CCCCN)NC(=O)CNC(=O)CNC(=O)CNC(=O)CC[C@H](NC(=O)CCCCCCCCCCCCC(=O)O)C(=O)O)cc3)CSSC[C@H](NC(=O)CNC(=O)[C@H](C(C)C)NC(=O)[C@H](Cc3c[nH]cn3)NC2=O)C(=O)N[C@@H]([C@@H](C)O)C(=O)N[C@@H](CCCCN)C(=O)N[C@@H](CCCNC(=N)N)C(=O)N[C@@H](CO)C(=O)N[C@@H](CC(C)C)C(=O)N[C@@H](C)C(=O)N[C@@H](CCCNC(=N)N)C(=O)N[C@@H](Cc2ccccc2)C(=O)N[C@H](C(=O)O)CSSC[C@@H](C(=O)NCC(=O)N[C@@H](CCSC)C(=O)N[C@@H](CO)C(=O)N[C@H](C(=O)N[C@@H](Cc2c[nH]c3ccccc23)C(=O)N[C@@H](CO)C(=O)O)[C@@H](C)O)NC1=O [AQ1-KKKGGG-Glu^γ-C13-COOH] | 0.09 | 258 | 0.24 |  |
